Experimental data: PMC8308607, “Antistaphylococcal Activity of the FtsZ Inhibitor C109” (Pathogens, 2021)

Target: the molecule itself
Assay: co-sedimentation; polymerization (sedimentation) assay: 12 μM SaFtsZ, 2 mM GTP, 50 mM MES pH 6.5, 5 mM Mg(CH3COO)2, 100 mM CH3CO2K, 10 min at 30 °C, ultracentrifuged at 350,000 x g for 10 min at 25 °C, pellet and supernatant on SDS-PAGE; with or without 50 μM C109

B1: wild-type FtsZ of S. aureus (natural protein, Staphylococcus aureus ATCC 25923, UniProt P0A031 1-390, looked up)
chain: MLEFEQGFNHLATLKVIGVGGGGNNAVNRMIDHGMNNVEFIAINTDGQALNLSKAESKIQIGEKLTRGLGAGANPEIGKKAAEESREQIEDAIQGADMVFVTSGMGGGTGTGAAPVVAKIAKEMGALTVGVVTRPFSFEGRKRQTQAAAGVEAMKAAVDTLIVIPNDRLLDIVDKSTPMMEAFKEADNVLRQGVQGISDLIAVSGEVNLDFADVKTIMSNQGSALMGIGVSSGENRAVEAAKKAISSPLLETSIVGAQGVLMNITGGESLSLFEAQEAADIVQDAADEDVNMIFGTVINPELQDEIVVTVIATGFDDKPTSHGRKSGSTGFGTSVNTSSNATSKDESFTSNSSNAQATDSVSERTHTTKEDDIPSFIRNREERRSRRTRR
notes: FtsZ, cell division protein, Staphylococcus aureus ATCC 25923; full-length ftsZ gene (1173 bp) amplified from genomic DNA; Cloned into pETSUMO by In-Fusion; also called SaFtsZ; full-length S. aureus FtsZ; source: E. coli BL21(DE3), purified (HisTrap HP nickel column, SUMO protease, Superdex-75 SEC)
Question: Does B1 bind?
Answer: Result: binds
